In series [1] the test system is C[C@H](N)C(=O)N1CCC[C@H]1C(=O)O. The experiment in a line: proline release, ninhydrin colorimetric assay; Lineweaver-Burk. The series is classed as biochemical, Escherichia coli. The conditions noted are these: 0.1 mM Mn2+, 25 mM Tris-HCl pH 8.0, 60 °C, 10 min, substrate 0.2-14.2 mM.
Series [2] concerns the molecule itself. The experiment in a line: SEC; gel filtration on Superdex 200 HiLoad 16/60, 25 mM Tris-HCl buffer (pH 8.0) with 10 mM Mg(OAc)2 and 2 mM DTT; calibrated with thyroglobulin, aldolase, ovalbumin, ribonuclease A; apparent molecular mass of the native form.

Two molecules from article PMC6215446, “High-level expression and molecular characterization of a recombinant prolidase from Escherichia coli NovaBlue” (PeerJ, 2018) can be followed below.

For the molecule EcPepQ (Escherichia coli K-12), in series [1], the Km was 8.8 ± 1.1 mM and the kcat was determined as 926.5 ± 2.0 s⁻¹.

B1: Escherichia coli NovaBlue prolidase (EcPepQ), His6-tagged (enzyme, UniProt P21165 1-443, looked up)
chain: MESLASLYKNHIATLQERTRDALARFKLDALLIHSGELFNVFLDDHPYPFKVNPQFKAWVPVTQVPNCWLLVDGVNKPKLWFYLPVDYWHNVEPLPTSFWTEDVEVIALPKADGIGSLLPAARGNIGYIGPVPERALQLGIEASNINPKGVIDYLHYYRSFKTEYELACMREAQKMAVNGHRAAEEAFRSGMSEFDINIAYLTATGHRDTDVPYSNIVALNEHAAVLHYTKLDHQAPEEMRSFLLDAGAEYNGYAADLTRTWSAKSDNDYAQLVKDVNDEQLALIATMKAGVSYVDYHIQFHQRIAKLLRKHQIITDMSEEAMVENDLTGPFMPHGIGHPLGLQVHDVAGFMQDDSGTHLAAPAKYPYLRCTRILQPGMVLTIEPGIYFIESLLAPWREGQFSKHFNWQKIEALKPFGGIRIEDNVVIHENNVENMTRDLKLA
notes: Prolidase (Xaa-Pro dipeptidase) PepQ of E. coli NovaBlue; residue number of 443 printed; Cloned BamHI/HindIII into pQE-30; also called Xaa-Pro dipeptidase; recombinant enzyme; source: E. coli M15 (pQE-EcPepQ), IPTG-induced, purified (Ni-NTA); not shown: His6, N-terminal, kept
As to B1, the “stoichiometry N” value in series [2] amounted to 2.
